# Results reported in patent publication US20060134741.
# T1: Sentrinized PML (construct not stated), P29590
# T1 chain: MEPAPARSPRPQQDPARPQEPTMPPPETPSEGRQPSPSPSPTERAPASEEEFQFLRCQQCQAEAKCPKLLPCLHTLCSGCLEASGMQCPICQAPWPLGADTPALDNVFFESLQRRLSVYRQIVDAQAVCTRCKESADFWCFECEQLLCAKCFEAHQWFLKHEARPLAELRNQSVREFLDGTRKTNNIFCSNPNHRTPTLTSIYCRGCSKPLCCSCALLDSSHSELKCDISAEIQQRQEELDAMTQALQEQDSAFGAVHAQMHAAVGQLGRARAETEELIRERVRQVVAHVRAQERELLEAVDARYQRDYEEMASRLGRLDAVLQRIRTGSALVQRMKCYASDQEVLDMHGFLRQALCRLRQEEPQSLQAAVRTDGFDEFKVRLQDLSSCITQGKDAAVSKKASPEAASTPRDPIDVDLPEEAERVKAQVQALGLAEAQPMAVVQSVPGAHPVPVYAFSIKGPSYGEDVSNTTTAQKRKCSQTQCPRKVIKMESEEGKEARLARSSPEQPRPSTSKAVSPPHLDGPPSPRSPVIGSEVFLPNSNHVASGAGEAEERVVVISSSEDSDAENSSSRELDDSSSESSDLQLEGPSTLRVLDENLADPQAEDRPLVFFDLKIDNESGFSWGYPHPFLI
# T2: sentrinized RanGAP (construct not stated), P46060
# T2 chain: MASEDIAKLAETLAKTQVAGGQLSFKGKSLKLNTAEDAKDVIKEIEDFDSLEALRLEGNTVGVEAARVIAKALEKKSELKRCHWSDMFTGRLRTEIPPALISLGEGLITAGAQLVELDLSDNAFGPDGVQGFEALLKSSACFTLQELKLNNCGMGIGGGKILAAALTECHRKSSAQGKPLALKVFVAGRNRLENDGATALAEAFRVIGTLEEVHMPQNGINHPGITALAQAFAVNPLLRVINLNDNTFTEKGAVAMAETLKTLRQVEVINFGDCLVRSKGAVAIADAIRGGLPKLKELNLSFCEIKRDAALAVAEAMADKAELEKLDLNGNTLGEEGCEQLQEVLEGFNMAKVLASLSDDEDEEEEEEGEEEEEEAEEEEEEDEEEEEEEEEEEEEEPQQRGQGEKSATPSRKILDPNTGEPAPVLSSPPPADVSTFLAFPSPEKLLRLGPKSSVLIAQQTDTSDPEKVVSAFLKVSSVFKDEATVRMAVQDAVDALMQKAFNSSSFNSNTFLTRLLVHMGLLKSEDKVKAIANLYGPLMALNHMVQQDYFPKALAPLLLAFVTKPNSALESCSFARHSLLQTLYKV
# Columns and labels:
# [1] = tested on: sentrin-modified proteins (Sentrin-1 conjugates)
# [2] = target: T1, Sentrinized PML (construct not stated), …
# [3] = target: T2, sentrinized RanGAP (construct not …)
Molecule,protease activity against sentrin-modified proteins [1],effect on sentrinized PML [2],effect on sentrinized RanGAP [3]
"HsUlp1 (full length, 371 aa)",extensive studies indicated that HsUlp I had no activity against sentrin-modified proteins,,
SENP2 (protein) MVTSACNGTRNVAPSGEVFSNSSSCELTGSGSWNNMLKLGNKSPNGISDYPKIRVTVTRDQPRRVLPSFGFTLNSEGCNRRPGGRRHSKGNPESSLMWKPQEQAVTEMISEESGKGLRRPHCTVEEGVQKEEREKYRKLLERLKESGHGNSVCPVTSNYHSSQRSQMDTLKTKGWGEEQNHGVKTTQFVPKQYRLVETRGPLCSLRSEKRCSKGKITDTEKMVGIRFENESRRGYQLEPDLSEEVSARLRLGSGSNGLLRRKVSIIETKEKNCSGKERDRRTDDLLELTEDMEKEISNALGHGPQDEILSSAFKLRITRGDIQTLKNYHWLNDEVINFYMNLLVERNKKQGYPALHVFSTFFYPKLKSGGYQAVKRWTKGVNLFEQEIILVPIHRKVHWSLVVIDLRKKCLKYLDSMGQKGHRICEILLQYLQDESKTKRNSDLNLLEWTHHSMKPHEIPQQLNGSDCGMFTCKYADYISRDKPITFTQHQMPLFRKKMVWEILHQQLL,,"Sentrinized PML, a tumor suppressor that resides in the nucleus, was selectively affected by SENP2",sentrinized RanGAP remained intact
